Assay: label from the status in PepcDB records

Sequence | protein production
EEGNSSELPLSAEDAKKLTELAENVLQGWDVQAEKIDVIQGNQMALVWKVHTDSGAVCLKRIHRPEKKALFSIFAQDYLAKKGMNVPGILPNKKGSLYSKHGSFLFVVYDWIEGRPFELTVKQDLEFIMKGLADFHTASVGYQPPNGVPIFTKLGRWPNHYTKRCKQMETWKLMAEAEKEDPFSQLYLQEIDGFIEDGLRIKDRLLQSTYVPWTEQLKKSPNLCHQDYGTGNTLLGENEQIWVIDLDTVSFDLPIRDLRKMIIPLLDTTGVWDDETFNVMLNAYESRAPLTEEQKQVMFIDMLFPYELYDVIREKYVRKSALPKEELESAFEYERIKANALRQLI | not failed
MSRRRMSESLPPGVQVDPAAIEQLVGRPVDDLSHYRRALTHRSLLRVHPARTFRSNERLEFLGDALLDVFVGEVLYDRFPEKDEGALTRLRARLVSERPLATYARGLGLGPHLLMSENAAEGDGRDNPSILADAFEAFVGAVYLDLGHEAARGFVQDRVLAPVDLEDVATRDDNYKSQLLEHLQALGRPQPTYHVVEEKGPSHDKTFTVEVRVGDAAYERGTAGSKQDAEQQAARRTLDEMASDPPAS | failed
MTIAILSTGDEIIHGDTLNTNAHYIAHALCSEGLPLGLQVACSDKENEIIDSLNFLTQHHDILILIGGLGPTKDDITRFALAKFTKEPLLQHADALDHIEKKANIAKISLNQGNLQQCLFPANARLFPNPYGTAMGCSYSWKGKVFILLPGPPRECLPMFNQDVLPLLLQTSRHSNK | not failed
MPQITLVFISLSGNTLSFVKRLSLYLADNYDYHVKQINIKDLKHETFPVKEEFVAILPTYLEGGNGVDSGDVEILTTPLGEFIAAHGNAQRCLGIIGSGNKNFNHQYCLTAKQYAKRFGFPLLGDFELRGTPDDISRLAQVIMEASSRHSSNDTQTL | failed
LTTEGGKALVDFAVKRNLQYIHFDAGWYGFEYDKVSDATTVTLDPRRNPDINALNLKEVVAYAKERGIGVILYVNQRALQQQLDEILPLYKSWGIAGIKFGFVQVGSQVWTKWMHEAIKKCADYGLMVDVHDEYRPTGFSRTYPNLM | failed
MKILSVSYIYLLMGISSYSYANFDLGINEFNAPNELTELSELNTSNDNNAIIELINSTNSQVTIIQHNVNKTGSNKAKVKQTGYDNTAAVMQLGSNNVGLIAQNGTNNLATLKQLGFNHEGAILQEGNDNIAHLVQTGNGKQNVVNQTGDSNIAAAVNKNNGAGFSINQTGNQGIILVNGMDRFISIVN | failed
LTEAVSLMEANIEEPLSTDDIAYYVGVSRRQLERLFKQYLGTVPSKYYLELRLNRARQLLQQTSKSIVQIGLACGFSSGPHFSSTYRNHFNITPREERAQ | not failed
MTFSAPAPTQLDPVVRHLYVHVPFCPSICPYCDFHVLTRQAGLVERYLERLEQEAAELAAAYAVDLDTVYLGGGTPSFLRDHELRALVESVQRHLGWGRAENTLEINPGTVSTERAALWRSLGFDRASVGVQSLDDATLKFLGRRHDARQARDAVSRLIAQDFRVSGDLITAVPGQPLDSDIHGLVELGVGHVSAYTLTIEPGTEFARRGVQVDEDAEREGFERTEELLAGHGFSRYEVSNYARAGQESRHNLSYWQGKTYLGLGPGAAGHYPVPTPGADALTLRRTNPHLHDWLVGQQGETLLVDPHEYVTDALFMGLRLRRGLDLADLTRRSGVDVAGRYGLVIERQVRLGLLEHSGTNLRATAQGWWVLNRIVREFMEVDAAETA | failed
MAKKSTRTTPEDSQASTTDSAATSTASEATQAATSATDDQAEQTTAVDPTQQITDLKAQLDAKDDQLLRAQAEIVNMQNRNKKEQAALLKYDGQALAKDVLPVLDNLERALATPADDEAAQQLKKGVEMVYGHLQDALKKHGVTEVAAAGEKFDPNIHQAVQTVPVDDDHPADTVVQVLQRGYLLKDRTLRPAMVVVAQ | failed
MNSLSLFSPSFTDSVFDALDRSLGPNFGVFAPIKNASCGMPSVDIRETEKAYVMEVDLPGYSEKDVEISLKDRLMTISSSKKEEKEDKGAEYIIKERSSRHFMRRFTLPEDINSDEVSAKFENGVLVVNIPRKPDTQPKQIEIKTA | failed
LNSAPTPRDVVANAPAPVQAAVAGAQEYAAQAGLNTEELAVDALYNAIKVRLAGTGLGIPPQIEAFYQANRTNFNGFYMANRGAIDFIFSM | not failed
MSLAEHKGDVMIVDDDAHVRIAVKTILSDAGFHIISADSGGQCIDLLKKGFSGVVLLDIMMPGMDGWDTIRAILDNSLEQGIAIVMLTAKNAPDAKMIGLQEYVVDYITKPFDNEDLIEKTTFFMGFVRNQTGNEGHHHHHH | not failed

Reference: a protein production outcome set (Wang et al. 2014)
